B1: unnamed (protein)
chain: MSNGYSACPAPYDHRGMRKHASLLAALPVLLAACGTTTSTLTTPAVTPQTLSGAATNPYERGPAPTTALLEAARGPYATASTTVPRSSVSDFGGATIYYPTSTADGTFGGVAISPGYTGTQASVAWLGPRLASHGFVVIVIDTLSRYDYPSSRGDQLRAALRYLTTSSAVRTRVDATRLAVMGHSMGGGGALEAAKDNPALKAAIPLTPWNTDKSWPELTTPTLIFGAQNDSVAPVSSHAIPFYTSLASTLPKAYLELRGASHGAPTSTNTTIAKYAVAWLKRFEDADRRYDPFLCPTPAVSTLLSDARSTCPFN
B2: unnamed (protein)
chain: MSNGYSACPAPYDHRGMRKHASLLAALPVLLAACGTTTSTLTTPAVTPQTLSGAATNPYERGPAPTTALLEAARGPYATASTTVPRSSVSDFGGATIYYPTSTADGTFGGVAISPGYTGTQASVAWLGPRLASHGFVVIVIDTLSRYDYPSSRGDQLRAALRYLTTSSAVRTRVDATRLAVMGHSMGGGGALEAAKDNPALKAAIPLTPWNTDKSWPELTTPTLIFGAQNDSVAPVSSHAIPFYTSLASTLPKAYLELRGASHGAPTSTNTTIAKYAVAWLKRFDADARRYDPFLCPTPAVSTLLSDARSTCPFN
B3: unnamed (protein)
chain: MDGVLWRVRTAALMAALLALAAWALVWASPSVEAQSNPYQRGPNPTRSALTADGPFSVATYTVSRLSVSGFGGGVIYYPTGTSLTFGGIAMSPGYTADASSLAWLGRRLASHGFVVLVINTNSRFDGPDSRASQLSAALNYLRTSSPSAVRARLDANRLAVAGHSMGGGGTLRIAEQNPSLKAAVPLTPWHTDKTFNTSVPVLIVGAEADTVAPVSQHAIPFYQNLPSTTPKVYVELCNASHIAPNSNNAAISVYTISWMKLWVDNDTRYRQFLCNVNDPALCDFRTNNRHCQ

substrate: p-NP-C10; assay: not given; conditions: 50 °C

| Protein | Km [µM] | kcat [s⁻¹] | kcat/Km [M⁻¹ s⁻¹] |
| --- | --- | --- | --- |
| B1 | 930 | 2.47 | 2660 |

substrate: p-NP-C2; assay: not given; conditions: 50 °C

| Protein | Km [µM] | kcat [s⁻¹] | kcat/Km [M⁻¹ s⁻¹] |
| --- | --- | --- | --- |
| B1 | 900 | 27.5 | 30600 |

substrate: p-NP-C4; assay: not given; conditions: 50 °C

| Protein | Km [µM] | kcat [s⁻¹] | kcat/Km [M⁻¹ s⁻¹] |
| --- | --- | --- | --- |
| B1 | 190 | 30.8 | 162000 |

substrate: p-NP-C8; assay: not given; conditions: 50 °C

| Protein | Km [µM] | kcat [s⁻¹] | kcat/Km [M⁻¹ s⁻¹] |
| --- | --- | --- | --- |
| B1 | 1290 | 11.3 | 8780 |

substrate: PCL; PBS; PHA; PLA; PUR; assay: Proxy for plastic degradation [Weight/mass loss]; conditions: pH 7; 24 h

| Protein | Proxy for plastic degradation [%] |
| --- | --- |
| B2 | 79 |

substrate: p-NP-C10; assay: not given; conditions: 60 °C

| Protein | Km [µM] | kcat [s⁻¹] | kcat/Km [M⁻¹ s⁻¹] |
| --- | --- | --- | --- |
| B3 | 2680 | 8.11 | 3030 |

substrate: p-NP-C2; assay: not given; conditions: 60 °C

| Protein | Km [µM] | kcat [s⁻¹] | kcat/Km [M⁻¹ s⁻¹] |
| --- | --- | --- | --- |
| B3 | 7310 | 159 | 21800 |

substrate: p-NP-C4; assay: not given; conditions: 60 °C

| Protein | Km [µM] | kcat [s⁻¹] | kcat/Km [M⁻¹ s⁻¹] |
| --- | --- | --- | --- |
| B3 | 760 | 137 | 180000 |

substrate: p-NP-C8; assay: not given; conditions: 60 °C

| Protein | Km [µM] | kcat [s⁻¹] | kcat/Km [M⁻¹ s⁻¹] |
| --- | --- | --- | --- |
| B3 | 7440 | 107 | 14300 |

From the PETadex activity labels (doi:10.1016/j.jhazmat.2023.131574)
